Experimental findings from the DeepSol protein solubility set are described below.

The nature of the data set: soluble on expression in E. coli; label from the status in PepcDB or PDB records.
Regarding “MDYDVLILGGGIIGCSIAYELSKYSLNVSLIEKEYEIGDDTSIVNSDLVYDGIESKYNFNYGLETEGNQEIEKICSVLSVPFKKVNAIVCSRDKENEDTINKIYSRGIKRGIKDASLANIESAIAKSIILKDINNKGIELKDIGIVCADDLALAYGEVAFDNGVNFRLNEKVIEIKKISKGFNVTTSKNKFTCKIVINTIPDASSPILVDGKEDKGSKKNISNLIYFVLDRKVKASLKHAIAVLSNKGDSTYIFRDFEDNIIVKIVTKDDCLYDEALDKLKAVIGDIEEEDIIYFYKSRFINDKIVITNKLDSDGYIKVQCKSYAISTVTPSISRNVGEAIVKNLNCKLKKEFYGRRREIYRFRDMSNKQRQKLIATNPDYGKIICRCNQVTEGEIIDSIRRPLGARTLNGIKRRTGVFNGECLGTCCIDKIVKILAKETNKSLTEVIKKTENSSIVKGRIKEFDEMLEHHHHHH”, the “soluble on expression in E. coli” value is listed as “not soluble”.
Turning to “MDAKQRIARRVAQELRDGDIVNLGIGLPTMVANYLPEGIHITLQSENGFLGLGPVTTAHPDLVNAGGQPCGVLPGAAMFDSAMSFALIRGGHIDACVLGGLQVDEEANLANWVVPGKMVPGMGGAMDLVTGSRKVIIAMEHCAKDGSAKILRRCTMPLTAQHAVHMLVTELAVFRFIDGKMWLTEIADGCDLATVRAKTEARFEVAADLNTQRGDL”, the “soluble on expression in E. coli” value is listed as “soluble”.
In the case of “MLVLGSGGARGYAHIGVIEELEARGYEITCIAGCSMGSVIGGIYAAGKLREYREWVESLDYLDVLRLLDVSFRLGAIRGERVFGKIHEILGEVNIEDLSIPYTAVATDLTNQQEIWFQEGCLHQAMRASAAIPSLFTPVMQGSRMLVDGGLLNPLPIVPVV”, the “soluble on expression in E. coli” value is recorded as “soluble”.
For the sequence “MKSILEQLSSITVVVADTGDLDAIKKFQPRDATTNPSLILAAAKNPDYIKLIDQALESSRKSLPAGFSESELIKETIDQVSVFFGKEILNLISGRVSTEVDARLSFDTEATVTKARKLINHYKSFGINKERILIKIASTWEGIKAAEILEKEGIKCNLTLLFNFCQAVACANAKITLISPFVGRILDWHKAKTGKDNFAGCEDPGVISVTKIYNYFKEKGFKTEVMGASFRNIDEIKELAGCDLLTIAPKFLDELNREEGELIKKLDEDTQSQSSIDYKFDEKDFRLSMLEDQMASEKLSEGITGFSKAIEELEELLLKRLSEINNQKLISTT”, the “soluble on expression in E. coli” value is listed as “not soluble”.
For “MAHHHHHHMSSDDECPELISARVPVTVLTGFLGSGKTTLLHYILSADHDMRIAVIVNEFEFGKTIEKGLTLKSSEKPDDEWLELNNGCMCCTAQTQTVKALESLMEHRGTFDLILVETSGLADPGPIAAMFWQDLPLCGHLYLSGIVTLVDAVNICRYLDDEDVMREAERQILMADKVVLNKCDIATEAQQKAALAAVREINPVATVIPSDHSRVPNLRDILFIDTTRAATELVHLHEHHHSSISAVSLEFFEAERAFAVSSYRDVHAIGSDLLYRCGDYGFEVVRCKAAIWCCEDGQYRLLQLQSIGDLFDVTPMVGQSVPFGCTRALVLGKQLDEVKLRDIFAKYLKATK”, the “soluble on expression in E. coli” value was “not soluble”.
As for “MEKVVCIGCGVTIQTEDKTGLGYAPPASLTKENVICQRCFRLKNYNEIQDVSLTDDDFLNILHGIGETDSLVVKIVDIFDFNGSWINGLQRLVGGNPILLVGNKADILPKSLKRERLIQWMKREAKELGLKPVDVFLVSAGRGQGIREVIDAIEHYRNGKDVYVVGCTNVGKSTFINRIIKEVSGEEDIITTSQFPGTTLDAIEIPLDDGSSLYDTPGIINNHQMAHYVNKKDLKILSPKKELKPRTFQLNDQQTLYFGGLARFDYVSGERSPFICYMPNELMIHRTKLENADALYEKHAGELLTPPGKDEMDEFPELVAHTFTIKDKKTDIVFSGLGWVTVHDADKKVTAYAPKGVHVFVRRSLILEHHHHHH”, the “soluble on expression in E. coli” value is “soluble”.
Consider “MSDRHFDELATRFAEKIYGGAKGAIRLAVLQADLAEALPERPLRVLDIGAGLGHMSLWLAARGHRVTLAEPAQPMLDGARQRFAEAGQAAEFIQAPWQELLGQLTEPYDLVLCHAVLEWLAEPHAILPVLHQLCAPGGWLSLAFYNRDALIYRNLLKGHFRKLRKERFAGEGQSLTPQRPLDPRELEQALAARWRIEARSGVRVFHDYMPSEFQAKAERLDLVEMELAYRRHPAFAGLGRYLHWLCRPQ”, for which the “soluble on expression in E. coli” value is reported as “not soluble”.
To “GPGSMKKTVEDRSLEFLIRRRNDAELPPLASLSCKHLKQHHWRDAFDDEQAALREQLWAVKTQLDVIPAETYTATRNKLFPLAASGEQRNFSNRAGHKLLESMESTGVWMELSKLLRGKSTKRPRDFAFADVCGGPGAFSQALFQAGRKRGWRHLHGYGMTLAGVSGLDWYAHLLKSPQFTCTYGLDGTGDIFKLSNIDCLASITKAAPMFLVVADGGFNVDFSVTNYQETISSRIMYGQWLAALKLLRKGGCFVLKLFDTFSPLSRAVLYLSCCMYRRVHVAKPRHSRVVNSERYLVCVDFLGYPSEGWSRYLDSFYEVGFVDNEHVPQLIPREWCLQDAVFMADVRDMNTAVATNQVIALQMILDAAPAMTEELKAKTIEKKPAAGSDDGRTPPPDEGGDGE” belongs “not soluble”; to “MSLDTGVTSVMFVERSLNEIRFWSRIMKEHSFFLRLGFRCEDTQLIEEANQFYRLFEHIEQIAHSYTNETDPEQIKRFNAEVQQAATNIWGFKRKILGLILTCKLPGQNNFPLLVDHTSREADYFRKRLIQLNEGKLDALPDAIIKENVFFLRIMADHAKFIGHLLDPSERKLVDTARNFSNDFDELMYQAIDLESMKPQSQTAPLLDQFLDQNRVSVASLRDFKKTARDLIEQCKIKSIIHPLLADHVFREADRFLEIIDMYDVHLTNIQSQPREGHHHHHH”, “soluble”.
In the case of “MTGTSNIPTHGKEHKDAPALLPLPAPNPHHTHAAHPGNPSHDRPPSRGKLFIKTHGCQMNEYDSAKMADVLTTTEALELTDNPEEADIILINTCSIREKAQEKVFSQLGRWRALKTSGRDVIIGVGGCVASQEGEAIVKRAPYVDLVFGPQTLHRLPDMIRARREQNRPQVDIRFPEIEKFDHLPTPRAEGPSAFVSIMEGCSKYCSFCVVPYTRGEEVSRPFEDVLTEIAHLATQGVREINLLGQNVNAYRGAMDPGPSNNTNPAPPPYADLGLLIRAIAQFESIGRIRFTTSHPLEFSDSLVEAYRDVPQLANHLHLPVQSGSDRILSAMKRGYTALEFKSKIRKLRAVRPDISISSDFIIGFPGESDTDFQKTMQLIEDIGFDQSFSFIYSRRPGTPASNLEDHTPDEIKRTRLEHLQKHINTYAADISKRMIGTVQTVLVEGPSKKNPNELTGKTENMRPVNFPGHPRLIGQFIDVHITEALSNSLRGRVHTNLEHHHHHH”, the “soluble on expression in E. coli” value is “soluble”.
Regarding “MCGGRGTRLDTKVEKPLFRIGGVPMVGRVVGALEDSAVERIIAATSPNAPETQSCLDVPCIETPGEGYVADLNAALNDDRLSQPVLTVAADLPLLDGEIVDRVLDEHNGGSLTVLVPASLKRALGVSDDTTFDNGGREVAPTGVNVVSDGPDDAWLTRDRRVAVNVNTLADARVAEQWLLEHHHHHH”, the “soluble on expression in E. coli” value is listed as “not soluble”.
As for “MGSDKIHHHHHHMSLSAQKCGRFFVSIQTEFEQERPTHKGGEIGIDMGVTRFATLSNGEFFEPLNAFKTYKGKLAKLQKQLKNKVKFSKNWQKLKEKIGKLHHKIANCRKDFLHKISTQISKNHAMIYVEDLQVANMSKSAKGTVEAHGKNVKQKSGLNRAILDQSWFEFRRQLDYKTQWLGGFLVAVPPRDTSRTCPCCGHIAKENRETQAHFECVECGYRENADVVGGINVLARGLAIVQA”, the “soluble on expression in E. coli” value is “not soluble”.
Consider “PREQIIRLHASSGTTGKPTVVGYTANDISNWADLVARSLRAAGLRKGDMIHNAYGYGLFTGGLGAHYGIERLGATVVPMSGGQTEKQVGLITDFKPTGIMVTPSYMLNILEQYHKVGMDPRESSLQVGVFGAEPWTDAMRREVEEAFDMHAVDIYGLSEIMGPGVANECVETKDGPVI”, for which the “soluble on expression in E. coli” value is “not soluble”.
Consider “MSFRETFLNNKFKFACRDSFLIEYYLEECYMSKKIINVVAAAIEKDGKIFCAQRPEGKSLGGYWEFPGGKLKEGESPEEALIREIYEELNSKIEIISFVNEASYDYDFGTVVMKTFHAKLVCGNLDLLEHQDSVWLEPSRLKTLNWAPVDRPAVELLSKEGHHHHHH”, for which the “soluble on expression in E. coli” value was “soluble”.
As for “MSQQGLERRLLAGLQGLGLTINQAQRAVKHFGADALDRLEKDLFTLTEVEGIGFLTADKLWQARGGALDDPRRLTAAAVYALQLAGTQAGHSFLPRSRAEKGVVHYTRVTPGQARLAVETAVELGRLSEDDSPLFAAEAAATGEGRIYLPHVLRAEKKLASLIRTLLATPPADGAGNDDWAVPKKARKGLSEEQASVLDQLAGHRLVVLTGGPGTGKSTTTKAVADLAESLGLEVGLCAPTGKAARRLGEVTGRTASTVHRLLGYGPQGFRHNHLEPAPYDLLIVDEVSMMGDALMLSLLAAVPPGARVLLVGDTDQLPPVDAGLPLLALAQAAPTIKLTQVYRQAAKNPIIQAAHGLLHGEAPAWGDKRLNLTEIEPDGGARRVALMVRELGGPGAVQVLTPMRKGPLGMDHLNYHLQALFNPGEGGVRIAEGEARPGDTVVQTKNDYNNEIFNGTLGMVLKAEGARLTVDFDGNVVELTGAELFNLQLGYALTVHRAQGSEWGTVLGVLHEAHMPMLSRNLVYTALTRARDRFFSAGSASAWQIAAARQREARNTALLERIRAHLEHHHHHH”, the “soluble on expression in E. coli” value is given as “soluble”.
Then “MAHHHHHHMFQNIQTIILDVNDGEMRAGYSGECSPRYNSNLILGLPVGHGATLKHTIFPLLPEIKRDNVELIYGMKYIYDDNNSSKYEINFDVMEKLLEDISGSKALDDNFQDHPILLTEPNKTDRKYREKFTEMMFETYNVYQLFLSRRSVLSCYGCARTSGLVLDVERNCTNLCGIQEGYIFQKHIEEVPIGGDLIDRIYLAYLENVKNIKIYPYFTIEKGQSAEKETDEIRILKCPLVTKPYYLWGSLHVASHLKENLGNECHPLGDKMKKNENKNESNTSYKLPDGSIIDQTTCESLKLIFPYIFFKKKYNQNSVTKLAGITTLQNMDFNSFYDSLKTLKLPVLYKHNYRINASSSVLERVPDNPADKNSNICNSDQIDTYFEIFDGLQDFIKKGILSFISANMTLDEVLNFLIVTGESTMFHNFIGILKSYLPFIDTIKEKSTQLIYSKGADRKCNCFIGASILSSLGTFPQFCMTKSEYEEYGVKNIVDKKCV”, with “not soluble”; and “MGSDKIHHHHHHQPAAGISDDMVKIGMLLDMSGLYADVTGRGSATAAQMAIDDFGGKVLGKKIELVVVDHQNKADIAANKAREWFDTGHVDAILDVAASAPALAVLDVAKQKNHIVVFSGPGSERITNDLCTPVSVHYAYDTYALANTTARAMVQRGGKTWFFLTADYAFGHTLQDSATAVINEAGGKVLGAARHPIGASDFASYLLQAQASKAQVVGLANAGGDTVNAIKAASEFGLTRNGAQRMAGLLLYINDIHAIGLKTASGLVLTEAFYWDMNDATRAWSRRYFEKVKKMPNMSQAGAYSSVMHYLKAVQAAGTDETAAVMKKMKSMPINDFFAKNGRIREDGRMIHDMYLFEVKSPAESKYPWDYYKVLATVPGDQAFMPASKSQCPLLKR”, with “not soluble”.
“MGKNEILWGIAPIGWRNDDMPEIGAGNTLQHLLSDIVVARFQGTEVGGFFPEPAILNKELKLRNLRIAGKWFSSFILRDGLGEAAKTFTLHCEYLQQVNADVAVVSEQTYSVQSLEKNVFTEKPHFTDDEWERLCEGLNHLGEIAAQHGLKLVYHHHLGTGVQTAEEVDRLMAGTDPAHVHLLYDTGHAYISDGDYMGMLEKHIGRIKHVHFKDARLNVMEQCRLEGQSFRQSFLKGMFTVPGDGCIDFREVYQLLLKHSYSGWIVIEAEQDPDVANPLEYALIARNYIDQQLLDLALEHHHHHH”: the “soluble on expression in E. coli” value was “not soluble”.
